The source of these data is PMC5538626, “Structural and functional analysis of the GABARAP interaction motif (GIM)” (EMBO Reports, 2017).

The target of assay [1] is LC3B (for ITC and NMR) (human) (UniProt Q9GZQ8). The assay can be described thus: ITC; peptide 0.4 mM titrated into 0.020 mM LC3/GABARAP protein in 26 steps, 25°C; 50 mM Na2HPO4, 100 mM NaCl, pH 7.0; one-site model.
Assay [2] addresses GABARAP (for ITC and NMR) (human) (UniProt O95166). The assay is described as above.

Chain of GABARAP (for ITC and NMR) (human) (O95166 whole entry): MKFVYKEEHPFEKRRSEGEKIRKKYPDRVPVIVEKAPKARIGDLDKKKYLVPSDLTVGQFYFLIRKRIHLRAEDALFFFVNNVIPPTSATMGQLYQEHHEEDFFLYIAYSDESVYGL

The Kd is the equilibrium constant for the complex coming apart. Low values mean a tighter complex, high ones a looser complex. As a reminder, the stoichiometry N is a count of units in the complex or per binding partner. “PLEKHM1‐LIR N637G peptide (ITC) (from UniProt Q9Y4G2 629-642)”: in assay [1], the Ka turned out to be 20000 M⁻¹, the Kd came to 50 µM and the dH is -1.4 kcal/mol. In assay [2], this substance showed a Ka of 130000 M⁻¹, a Kd of 7.75 µM, a dH of -6.7 kcal/mol and a stoichiometry N of 1.17.
In assay [1], “PLEKHM1‐LIR VNV‐CIL peptide (ITC) (from UniProt Q9Y4G2 629-642)” had a Ka of 3.03e+06 M⁻¹, a Kd of 0.33 µM, a dH of -7.9 kcal/mol and a stoichiometry N of 1.06. Also, in assay [2], the Ka was 1.13e+07 M⁻¹, the Kd was found to be 0.09 µM, the dH is -9.2 kcal/mol and the stoichiometry N turned out to be 1.07.
